Laboratory results taken from paper PMC6787100.
pKd: −log10 of the molar value. Several values for one entry are separate records, joined by “and”; a condition that tells them apart may be missing. Equal values may be shown once.

Columns and labels:
[1] = biological target: lantibiotic subtilomycin (Bacillus subtilis BSn5); experiment: tricine-SDS-PAGE; purified subtilomycin on 16% tricine-SDS-PAGE; bands of around 9, 12 and 15 kDa; oligomers of subtilomycin
[2] = biological target: Hag (ex), recombinant Hag with the flg22 region replaced by flg22 (Ps) (Bacillus subtilis BSn5 | Pseudomonas syringae); experiment: MST; protein labelled with Cy5-NHS ester at fixed concentration, serial 2x dilutions of unlabelled subtilomycin (1 mM set as highest; 500 μM highest final in the legend); PBS pH 8.0; MST power 20%, LED power 60%; Monolith NT.115; constants called ambiguous, based on total subtilomycin concentration

Substance: lantibiotic subtilomycin (peptide)
- stoichiometry N [1]: 3 and 4 and 5
- pKd [2]: 4.09
